From IntAct's records for PubMed 20181956

B1: Trinucleotide repeat-containing gene 6C protein (Homo sapiens), Q9HCJ0 (parent)
chain: MEEKKKKKQEEKKKKEGAQKKAADQKTKVPEPTKTCSSQPQPAGTSTSTSTSTISSSNNGKRASASGQQPAASRYLPREVPPRFRQQEQKQLLKRGQPLPTGTLTSVSPTQGAGPAGVSPPPLPGAGTQHHPSKLQPDLSHSGLADHYENSHWGQQPTYRSEANCSWDKVIIDRTDKEAWPSITGTETESASECTTDTDSASNCGSENSSMATGSAQGNFTGHTKKTNGNNGTNGALVQSPSNQSALGAGGANSNGSAARVWGVATGSSSGLAHCSVSGGDGKMDTMIGDGRSQNCWGASNSNAGINLNLNPNANPAAWPVLGHEGTVATGNPSSICSPVSAIGQNMGNQNGNPTGTLGAWGNLLPQESTEPQTSTSQNVSFSAQPQNLNTDGPNNTNPMNSSPNPINAMQTNGLPNWGMAVGMGAIIPPHLQGLPGANGSSVSQVSGGSAEGISNSVWGLSPGNPATGNSNSGFSQGNGDTVNSALSAKQNGSSSAVQKEGSGGNAWDSGPPAGPGILAWGRGSGNNGVGNIHSGAWGHPSRSTSNGVNGEWGKPPNQHSNSDINGKGSTGWESPSVTSQNPTVQPGGEHMNSWAKAASSGTTASEGSSDGSGNHNEGSTGREGTGEGRRRDKGIIDQGHIQLPRNDLDPRVLSNTGWGQTPVKQNTAWEFEESPRSERKNDNGTEAWGCAATQASNSGGKNDGSIMNSTNTSSVSGWVNAPPAAVPANTGWGDSNNKAPSGPGVWGDSISSTAVSTAAAAKSGHAWSGAANQEDKSPTWGEPPKPKSQHWGDGQRSNPAWSAGGGDWADSSSVLGHLGDGKKNGSGWDADSNRSGSGWNDTTRSGNSGWGNSTNTKANPGTNWGETLKPGPQQNWASKPQDNNVSNWGGAASVKQTGTGWIGGPVPVKQKDSSEATGWEEPSPPSIRRKMEIDDGTSAWGDPSNYNNKTVNMWDRNNPVIQSSTTTNTTTTTTTTTSNTTHRVETPPPHQAGTQLNRSPLLGPVSSGWGEMPNVHSKTENSWGEPSSPSTLVDNGTAAWGKPPSSGSGWGDHPAEPPVAFGRAGAPVAASALCKPASKSMQEGWGSGGDEMNLSTSQWEDEEGDVWNNAASQESTSSCSSWGNAPKKGLQKGMKTSGKQDEAWIMSRLIKQLTDMGFPREPAEEALKSNNMNLDQAMSALLEKKVDVDKRGLGVTDHNGMAAKPLGCRPPISKESSVDRPTFLDKDGGLVEEPTPSPFLPSPSLKLPLSHSALPSQALGGIASGLGMQNLNSSRQIPSGNLGMFGNSGAAQARTMQQPPQPPVQPLNSSQPSLRAQVPQFLSPQVQAQLLQFAAKNIGLNPALLTSPINPQHMTMLNQLYQLQLAYQRLQIQQQMLQAQRNVSGSMRQQEQQVARTITNLQQQIQQHQRQLAQALLVKQPPPPPPPPHLSLHPSAGKSAMDSFPSHPQTPGLPDLQTKEQQSSPNTFAPYPLAGLNPNMNVNSMDMTGGLSVKDPSQSQSRLPQWTHPNSMDNLPSAASPLEQNPSKHGAIPGGLSIGPPGKSSIDDSYGRYDLIQNSESPASPPVAVPHSWSRAKSDSDKISNGSSINWPPEFHPGVPWKGLQNIDPENDPDVTPGSVPTGPTINTTIQDVNRYLLKSGGSSPPSSQNATLPSSSAWPLSASGYSSSFSSIASAPSVAGKLSDIKSTWSSGPTSHTQASLSHELWKVPRNSTAPTRPPPGLTNPKPSSTWGASPLGWTSSYSSGSAWSTDTSGRTSSWLVLRNLTPQIDGSTLRTLCLQHGPLITFHLNLTQGNAVVRYSSKEEAAKAQKSLHMCVLGNTTILAEFAGEEEVNRFLAQGQALPPTSSWQSSSASSQPRLSAAGSSHGLVRSDAGHWNAPCLGGKGSSELLWGGVPQYSSSLWGPPSADDSRVIGSPTPLTTLLPGDLLSGESL

Variants of: B1
Conditions: with pabp1_human PABPC1, P11940
Sequence of pabp1_human PABPC1, P11940 (P11940 whole entry): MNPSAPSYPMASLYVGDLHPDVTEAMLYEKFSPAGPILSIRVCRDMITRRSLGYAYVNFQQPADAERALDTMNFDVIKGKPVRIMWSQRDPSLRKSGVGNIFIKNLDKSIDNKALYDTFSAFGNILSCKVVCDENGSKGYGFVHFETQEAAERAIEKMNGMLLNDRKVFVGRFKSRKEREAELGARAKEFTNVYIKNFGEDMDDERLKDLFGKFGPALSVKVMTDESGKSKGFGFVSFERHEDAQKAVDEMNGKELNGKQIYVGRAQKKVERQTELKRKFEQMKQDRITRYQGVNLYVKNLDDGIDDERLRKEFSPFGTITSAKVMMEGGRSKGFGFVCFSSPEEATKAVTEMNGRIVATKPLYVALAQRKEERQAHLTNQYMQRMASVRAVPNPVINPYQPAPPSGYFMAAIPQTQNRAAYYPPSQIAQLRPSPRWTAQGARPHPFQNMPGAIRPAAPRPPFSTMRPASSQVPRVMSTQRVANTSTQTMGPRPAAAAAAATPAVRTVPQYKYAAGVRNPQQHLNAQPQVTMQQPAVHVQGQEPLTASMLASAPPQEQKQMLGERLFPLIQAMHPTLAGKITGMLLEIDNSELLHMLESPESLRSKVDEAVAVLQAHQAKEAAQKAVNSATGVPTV

Variant | effect of a mutation on the interaction
W1602A | decreasing interaction
G1599A | decreasing interaction

Variants of: B1
Conditions: with pabp1_human PABPC1, P11940
Remark: another data set of the same source

Variant | effect of a mutation on the interaction
P1593A | decreasing interaction
W1592A | decreasing interaction
P1601A | decreasing interaction
F1596A | disrupting interaction
